From the supplement of paper PMC5998384

System: HeLa Kyoto
Test: thermal stability score vs G1/S (z-score of summed log2 fold changes over temperatures); higher = more thermally stable than in G1/S
[1] = cell cycle stage: early G1 (4.5 h after nocodazole release)
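Also: synchronized HeLa Kyoto cells, proteins quantified by TMT10plex mass spectrometry, three biological replicates, mitosis taken 0.5 h after nocodazole release, G1/S directly after double thymidine block.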

Sequence: MASAVFEGTSLVNMFVRGCWVNGIRRLIVSRRGDEEEFFEIRTEWSDRSVLYLHRSLADLGRLWQRLRDAFPEDRSELAQGPLRQGLVAIKEAHDIETRLNEVEKLLKTIISMPCKYSRSEVVLTFFERSPLDQVLKNDNVHKIQPSFQSPVKISEIMRSNGFCLANTETIVIDHSIPNGRDQQLGVDPTEHLFENGSEFPSELEDGDDPAAYVTNLSYYHLVPFETDIWD [PXDC1]
- thermal stability score [1]: -0.022
- thermal stability score (cell cycle stage: mitosis): 0.549

Sequence: MLCLCLYVPVIGEAQTEFQYFESKGLPAELKSIFKLSVFIPSQEFSTYRQWKQKIVQAGDKDLDGQLDFEEFVHYLQDHEKKLRLVFKSLDKKNDGRIDAQEIMQSLRDLGVKISEQQAEKILKSMDKNGTMTIDWNEWRDYHLLHPVENIPEIILYWKHSTIFDVGENLTVPDEFTVEERQTGMWWRHLVAGGGAGAVSRTCTAPLDRLKVLMQVHASRSNNMGIVGGFTQMIREGGARSLWRGNGINVLKIAPESAIKFMAYEQIKRLVGSDQETLRIHERLVAGSLAGAIAQSSIYPMEVLKTRMALRKTGQYSGMLDCARRILAREGVAAFYKGYVPNMLGIIPYAGIDLAVYETLKNAWLQHYAVNSADPGVFVLLACGTMSSTCGQLASYPLALVRTRMQAQASIEGAPEVTMSSLFKHILRTEGAFGLYRGLAPNFMKVIPAVSISYVVYENLKITLGVQSR [SLC25A25]
- thermal stability score [1]: -0.983
- thermal stability score (cell cycle stage: mitosis): -0.000686

Sequence: MSGFENLNTDFYQTSYSIDDQSQQSYDYGGSGGPYSKQYAGYDYSQQGRFVPPDMMQPQQPYTGQIYQPTQAYTPASPQPFYGNNFEDEPPLLEELGINFDHIWQKTLTVLHPLKVADGSIMNETDLAGPMVFCLAFGATLLLAGKIQFGYVYGISAIGCLGMFCLLNLMSMTGVSFGCVASVLGYCLLPMILLSSFAVIFSLQGMVGIILTAGIIGWCSFSASKIFISALAMEGQQLLVAYPCALLYGVFALISVF [YIPF5]
- thermal stability score [1]: -0.124
- thermal stability score (cell cycle stage: mitosis): -0.361

Sequence: MAEQVLPQALYLSNMRKAVKIRERTPEDIFKPTNGIIHHFKTMHRYTLEMFRTCQFCPQFREIIHKALIDRNIQATLESQKKLNWCREVRKLVALKTNGDGNCLMHATSQYMWGVQDTDLVLRKALFSTLKETDTRNFKFRWQLESLKSQEFVETGLCYDTRNWNDEWDNLIKMASTDTPMARSGLQYNSLEEIHIFVLCNILRRPIIVISDKMLRSLESGSNFAPLKVGGIYLPLHWPAQECYRYPIVLGYDSHHFVPLVTLKDSGPEIRAVPLVNRDRGRFEDLKVHFLTDPENEMKEKLLKEYLMVIEIPVQGWDHGTTHLINAAKLDEANLPKEINLVDDYFELVQHEYKKWQENSEQGRREGHAQNPMEPSVPQLSLMDVKCETPNCPFFMSVNTQPLCHECSERRQKNQNKLPKLNSKPGPEGLPGMALGASRGEAYEPLAWNPEESTGGPHSAPPTAPSPFLFSETTAMKCRSPGCPFTLNVQHNGFCERCHNARQLHASHAPDHTRHLDPGKCQACLQDVTRTFNGICSTCFKRTTAEASSSLSTSLPPSCHQRSKSDPSRLVRSPSPHSCHRAGNDAPAGCLSQAARTPGDRTGTSKCRKAGCVYFGTPENKGFCTLCFIEYRENKHFAAASGKVSPTASRFQNTIPCLGRECGTLGSTMFEGYCQKCFIEAQNQRFHEAKRTEEQLRSSQRRDVPRTTQSTSRPKCARASCKNILACRSEELCMECQHPNQRMGPGAHRGEPAPEDPPKQRCRAPACDHFGNAKCNGYCNECFQFKQMYG [TNFAIP3]
- thermal stability score [1]: 0.262
- thermal stability score (cell cycle stage: mitosis): -0.606

Sequence: MAALEKMTFPKKMTFPEKPSHKKYRAALKKEKRKKRRQELARLRDSGLSQEEEEDTFIEEQQLEEEKLLERERERLHEEWLLREQKAQEEFRIKKEKEEAAKKWLEEQERKLKEQWKEQQRKEREEEEQKQQEKKEKEEAVQKMLDQAENDLENSTTWQNPEPPVDFRVMEKDRANCPFYSKTGACRFGDRCSRKHNFPTSSPTLLIKSMFTTFGMEQCRRDDYDPDASLEYSEEETYQQFLDFYEDVLPEFKNVGKVIQFKVSCNLEPHLRGNVYVQYQSEEECQAALSLFNGRWYAGRQLQCEFCPVTRWKMAICGLFEIQQCPRGKHCNFLHVFRNPNNEFWEANRDIYLSSDQTGSSFGKNSERREKMGHHDHYYSRQRGRRNPSPDHTYKRNGESERKKSSHRGKKSHKRTSKSRERHNSPSRGRNRHRSWDQGRRSQSRRSHRSRSQSSSRCRSRGRRKSGNRDRTVQSPQSK [ZRSR1]
- thermal stability score [1]: 1.06e-17
- thermal stability score (cell cycle stage: mitosis): 1.37e-17

Sequence: MLIKEYHILLPMSLDEYQVAQLYMIQKKSREESSGEGSGVEILANRPYTDGPGGSGQYTHKVYHVGSHIPGWFRALLPKAALQVEEESWNAYPYTRTRYTCPFVEKFSIEIETYYLPDGGQQPNVFNLSGAERRQRILDTIDIVRDAVAPGEYKAEEDPRLYHSVKTGRGPLSDDWARTAAQTGPLMCAYKLCKVEFRYWGMQAKIEQFIHDVGLRRVMLRAHRQAWCWQDEWTELSMADIRALEEETARMLAQRMAKCNTGSEGSEAQPPGKPSTEARSAASNTGTPDGPEAPPGPDASPDASFGKQWSSSSRSSYSSQHGGAVSPQSLSEWRMQNIARDSENSSEEEFFDAHEGFSDSEEVFPKEMTKWNSNDFIDAFASPVEAEGTPEPGAEAAKGIEDGAQAPRDSEGLDGAGELGAEACAVHALFLILHSGNILDSGPGDANSKQADVQTLSSAFEAVTRIHFPEALGHVALRLVPCPPICAAAYALVSNLSPYSHDGDSLSRSQDHIPLAALPLLATSSSRYQGAVATVIARTNQAYSAFLRSPEGAGFCGQVALIGDGVGGILGFDALCHSANAGTGSRGSSRRGSMNNELLSPEFGPVRDPLADGVEGLGRGSPEPSALPPQRIPSDMASPEPEGSQNSLQAAPATTSSWEPRRASTAFCPPAASSEAPDGPSSTARLDFKVSGFFLFGSPLGLVLALRKTVMPALEAAQMRPACEQIYNLFHAADPCASRLEPLLAPKFQAIAPLTVPRYQKFPLGDGSSLLLADTLQTHSSLFLEELEMLVPSTPTSTSGAFWKGSELATDPPAQPAAPSTTSEVVKILERWWGTKRIDYSLYCPEALTAFPTVTLPHLFHASYWESADVVAFILRQVIEKERPQLAECEEPSIYSPAFPREKWQRKRTQVKIRNVTSNHRASDTVVCEGRPQVLSGRFMYGPLDVVTLTGEKVDVYIMTQPLSGKWIHFGTEVTNSSGRLTFPVPPERALGIGVYPVRMVVRGDHTYAECCLTVVARGTEAVVFSIDGSFTASVSIMGSDPKVRAGAVDVVRHWQDSGYLIVYVTGRPDMQKHRVVAWLSQHNFPHGVVSFCDGLTHDPLRQKAMFLQSLVQEVELNIVAGYGSPKDVAVYAALGLSPSQTYIVGRAVRKLQAQCQFLSDGYVAHLGQLEAGSHSHASSGPPRAALGKSSYGVAAPVDFLRKQSQLLRSRGPSQAEREGPGTPPTTLARGKARSISLKLDSEE [PITPNM1]
- thermal stability score [1]: 0.586
- thermal stability score (cell cycle stage: mitosis): 0.463

Sequence: MDPETRGQEIIKVTPLQQMLASCTGAILTSVIVTPLDVVKIRLQAQNNPLPKGKCFVYSNGLMDHLCVCEEGGNKLWYKKPGNFQGTLDAFFKIIRNEGIKSLWSGLPPTLVMAVPATVIYFTCYDQLSALLRSKLGENETCIPIVAGIVARFGAVTVISPLELIRTKMQSKKFSYVELHRFVSKKVSEDGWISLWRGWAPTVLRDVPFSAMYWYNYEILKKWLCEKSGLYEPTFMINFTSGALSGSFAAVATLPFDVVKTQKQTQLWTYESHKISMPLHMSTWIIMKNIVAKNGFSGLFSGLIPRLIKIAPACAIMISTYEFGKAFFQKQNVRRQQY [SLC25A40]
- thermal stability score [1]: -1.32
- thermal stability score (cell cycle stage: mitosis): -2.29

Sequence: MWSGPPQPDQGLPPPLAAVPVPWKSTDPCQGHRESPGALVETSAGEEAQGQEGPAAAQLDVLRLRSSSMEIREKGSEFLKEELHRAQKELKLKDEECERLSKVREQLEQELEELTASLFEEAHKMVREANMKQAASEKQLKEARGKIDMLQAEVTALKTLVITSTPASPNRELHPQLLSPTKAGPRKGHSRHKSTSSTLCPAVCPAAGHTLTPDREGKEVDTILFAEFQAWRESPTLDKTCPFLERVYREDVGPCLDFTMQELSVLVRAAVEDNTLTIEPVASQTLPTVKVAEVDCSSTNTCALSGLTRTCRHRIRLGDSKSHYYISPSSRARITAVCNFFTYIRYIQQGLVRQDAEPMFWEIMRLRKEMSLAKLGFFPQEA [RAB3IL1]
- thermal stability score [1]: -0.0366
- thermal stability score (cell cycle stage: mitosis): 0.539

Sequence: MAPLRPLLILALLAWVALADQESCKGRCTEGFNVDKKCQCDELCSYYQSCCTDYTAECKPQVTRGDVFTMPEDEYTVYDDGEEKNNATVHEQVGGPSLTSDLQAQSKGNPEQTPVLKPEEEAPAPEVGASKPEGIDSRPETLHPGRPQPPAEEELCSGKPFDAFTDLKNGSLFAFRGQYCYELDEKAVRPGYPKLIRDVWGIEGPIDAAFTRINCQGKTYLFKGSQYWRFEDGVLDPDYPRNISDGFDGIPDNVDAALALPAHSYSGRERVYFFKGKQYWEYQFQHQPSQEECEGSSLSAVFEHFAMMQRDSWEDIFELLFWGRTSAGTRQPQFISRDWHGVPGQVDAAMAGRIYISGMAPRPSLAKKQRFRHRNRKGYRSQRGHSRGRNQNSRRPSRATWLSLFSSEESNLGANNYDDYRMDWLVPATCEPIQSVFFFSGDKYYRVNLRTRRVDTVDPPYPRSIAQYWLGCPAPGHL [VTN]
- thermal stability score [1]: 2.31
- thermal stability score (cell cycle stage: mitosis): -1.24

Sequence: MEPGEVKDRILENISLSVKKLQSYFAACEDEIPAIRNHDKVLQRLCEHLDHALLYGLQDLSSGYWVLVVHFTRREAIKQIEVLQHVATNLGRSRAWLYLALNENSLESYLRLFQENLGLLHKYYVKNALVCSHDHLTLFLTLVSGLEFIRFELDLDAPYLDLAPYMPDYYKPQYLLDFEDRLPSSVHGSDSLSLNSFNSVTSTNLEWDDSAIAPSSEDYDFGDVFPAVPSVPSTDWEDGDLTDTVSGPRSTASDLTSSKASTRSPTQRQNPFNEEPAETVSSSDTTPVHTTSQEKEEAQALDPPDACTELEVIRVTKKKKIGKKKKSRSDEEASPLHPACSQKKCAKQGDGDSRNGSPSLGRDSPDTMLASPQEEGEGPSSTTESSERSEPGLLIPEMKDTSMERLGQPLSKVIDQLNGQLDPSTWCSRAEPPDQSFRTGSPGDAPERPPLCDFSEGLSAPMDFYRFTVESPSTVTSGGGHHDPAGLGQPLHVPSSPEAAGQEEEGGGGEGQTPRPLEDTTREAQELEAQLSLVREGPVSEPEPGTQEVLCQLKRDQPSPCLSSAEDSGVDEGQGSPSEMVHSSEFRVDNNHLLLLMIHVFRENEEQLFKMIRMSTGHMEGNLQLLYVLLTDCYVYLLRKGATEKPYLVEEAVSYNELDYVSVGLDQQTVKLVCTNRRKQFLLDTADVALAEFFLASLKSAMIKGCREPPYPSILTDATMEKLALAKFVAQESKCEASAVTVRFYGLVHWEDPTDESLGPTPCHCSPPEGTITKEGMLHYKAGTSYLGKEHWKTCFVVLSNGILYQYPDRTDVIPLLSVNMGGEQCGGCRRANTTDRPHAFQVILSDRPCLELSAESEAEMAEWMQHLCQAVSKGVIPQGVAPSPCIPCCLVLTDDRLFTCHEDCQTSFFRSLGTAKLGDISAVSTEPGKEYCVLEFSQDSQQLLPPWVIYLSCTSELDRLLSALNSGWKTIYQVDLPHTAIQEASNKKKFEDALSLIHSAWQRSDSLCRGRASRDPWC [PLEKHM2]
- thermal stability score [1]: -1.92
- thermal stability score (cell cycle stage: mitosis): -1.58

Sequence: MHTLVFLSTRQVLQCQPAACQALPLLPRELFPLLFKVAFMDKKTVVLRELVHTWPFPLLSFQQLLQECAHCSRALLQERPSTESMQAVILGLTARLHTSEPGASTQPLCRKHALRVLDMTGLLDDGVEQDPGTMSMWDCTAAVARTCIAQQQGGAAEPGPAPIPVEVRVDLRVNRASYAFLREALRSSVGSPLRLCCRDLRAEDLPMRNTVALLQLLDAGCLRRVDLRFNNLGLRGLSVIIPHVARFQHLASLRLHYVHGDSRQPSVDGEDNFRYFLAQMGRFTCLRELSMGSSLLSGRLDQLLSTLQSPLESLELAFCALLPEDLRFLARSPHAAHLKKLDLSGNDLSGSQLAPFQGLLQASAATLLHLELTECQLADTQLLATLPILTQCASLRYLGLYGNPLSMAGLKELLRDSVAQAELRTVVHPFPVDCYEGLPWPPPASVLLEASINEEKFARVEAELHQLLLASGRAHVLWTTDIYGRLAADYFSL [LRRC14]
- thermal stability score [1]: -0.753
- thermal stability score (cell cycle stage: mitosis): -0.00668
